Laboratory results published in paper PMC12797002, “Hydrophobic residues in the α‐synuclein NAC domain drive seed‐competent fibril formation and are targeted by peptide inhibitors” (The Febs Journal, 2025).
“Also recorded” adds a separate entry of the source.

Experiments:
[1] = ThT aggregation kinetics and AFM/TEM imaging of NAC peptides; type: physicochemical; details: for aggregation (ThT kinetics) / lag time of aggregation compared with NAC35: 100 μM peptide, n = 3; for aggregation (ThT kinetics): 15 μM ThT, 1× PBS pH 7.2, 37 °C, 1000 rpm, 48–72 h, ThT fluorescence; for aggregate morphology (AFM and TEM): after 48 h of aggregation; for Key observations: fibril formation and stability / Key observations: nucleation: summary table; for lag time of aggregation compared with NAC35: ThT readings 0–10 h, Boltzmann sigmoidal fit, PBS pH 7.2, 37 °C
Experimental: NAC peptides stored at −80 °C were thawed on ice and centrifuged at 12 100 g for 45 s. A reaction mixture (40 μL) was prepared on ice containing 100 μM NAC peptide, either alone or in combination with inhibitor peptides at a 1 : 2 molar ratio, along with 15 μM ThT (Sigma‐Aldrich, Burlington, MA, USA; Cat. # T3516‐5G) in 1× PBS (pH 7.2). This mixture was then dispensed into a clear‐bottom, black 384‐well plate (Revvity, Waltham, MA, USA), and the plate was sealed with a TopSealA‐PLUS (Revvity) to prevent evaporation.
The aggregation kinetics was monitored on an EnSpire Multimode Plate Reader (Revvity) at 37 °C with a constant agitation of 1000 rpm. To prevent condensation in the assay plate, the upper heater temperature in the plate reader was set to 2 °C higher than the lower heater temperature. ThT (Ex: 460–490 nm, Em: 500–550 nm) fluorescence readings were recorded every 5–10 min for 48–72 h. The aggregation lag time was determined by fitting a Boltzmann sigmoidal equation to the fluorescence data in OriginPro 2024 (OriginLab Corporation, Northampton, MA, USA).
NAC peptide aggregates, collected after 48 h of the aggregation assay, were dropped onto a freshly cleaved 10 mm AFM mica disc (Ted Pella, Inc., Redding, CA, USA) and air‐dried for 10 min at room temperature. The mica discs were washed five times with deionized water and then dried for 10–15 min at room temperature. AFM imaging was performed as described, using the […] AIR probe (tip radius: 2 nm, spring constant: 0.4 N/m).
Samples were dropped on glow‐discharged carbon‐coated copper grids and negatively stained with 2% uranyl acetate. Electron microscopy was performed on a Tecnai G2 F20 microscope (FEI Technologies, Hillsboro, OR, USA) with an Eagle 4K CCD camera (FEI Technologies) or a CM100 TWIN Transmission Electron Microscope (Philips, Amsterdam, Netherlands) equipped with a side‐mounted Veleta Camera (Olympus, Tokyo, Japan) and processed in the iTEM software suite (Olympus). After bringing the images to 2048 × 2048 pixels, the pixel size at the specimen level was 1.14 nm. Approximately 20 micrographs of each specimen were recorded and evaluated.

[2] = UV-Vis spectrophotometric analysis of soluble and insoluble fractions; type: physicochemical; details: 100 μM peptide, 48 h incubation without ThT, 65 000 g 1 h, 1× PBS pH 7.2, spectra 400–600 nm; means of 3 replicates
Experimental: To fractionate aggregated samples (recombinant αSyn or NAC peptides), 20% of the aggregation mixture was set aside as the ‘total fraction’. The remaining sample was centrifuged at room temperature at 65 000 g for 1 h. The supernatant was collected as the ‘soluble fraction’ and transferred to a fresh tube. The pellet was resuspended in 80 μL of 1× PBS (pH 7.2) and centrifuged at 65 000 g for 1 h. After removing the supernatant, the pellet was resuspended in 8 μL of 1× PBS (pH 7.2), yielding a 10× concentrated ‘insoluble fraction’.
NAC peptides (100 μM) were incubated without ThT for 48 h to allow aggregation. The resulting mixtures were centrifuged at 65 000 g for 1 h to separate the soluble and insoluble fractions, as outlined above. Insoluble fractions were resuspended in an equal volume of 1× PBS (pH 7.2) as the soluble fractions. UV–Vis absorption spectra were recorded from 400 to 600 nm using an EnSpire Multimode Plate Reader (Revvity) with a resolution of 10 nm.

[3] = ANS assay of NAC peptide aggregation at different pH; type: physicochemical; details: ANS fluorescence, 100 μM peptide; for aggregation on altering pH: acidic, neutral (pH 7.2) and basic (pH 8.0) PBS, 37 °C; for lag time at acidic pH compared with neutral pH / lag time at basic pH compared with neutral pH: 40 μM ANS, 1× PBS, 1000 rpm, n = 3; for lag time at acidic pH compared with neutral pH: acidic (pH 4.5 in legend, pH 4.2 in method) vs pH 7.2, 37 °C; for lag time at basic pH compared with neutral pH: pH 8.0 vs pH 7.2, 37 °C
Experimental: A 40‐μL reaction mixture was prepared on ice containing 100 μM NAC peptides and 40 μM 8‐anilino‐1‐naphthalenesulfonic acid (ANS; Sigma‐Aldrich, Cat. # A1028‐5G) in 1× PBS at pH 4.2, 7.2, or 8.0. The aggregation kinetics were monitored on an EnSpire Multimode Plate Reader (Revvity) at 37 °C with a constant agitation of 1000 rpm. ANS fluorescence readings (Ex: 390 nm, Em: 475 nm) were recorded every 5–10 min for 48–72 h. The lag time of aggregation was determined by fitting a Boltzmann sigmoidal equation, as described in the previous section.

[4] = target: T1, monomeric αSyn (Homo sapiens, UniProt P37840, A53T); assay: In vitro seeding assay with preformed fibrils (ThT, dot blot, Coomassie gel); type: biochemical; details: for seeding of αSyn aggregation (effect on lag time) in words: 100 μM αSyn + 25 μM preformed fibrils, ThT; for αSyn dimerization (dimer-to-monomer band ratio, Coomassie gel): insoluble fractions of seeded αSyn, n = 2; for Key observations: seeding of αSyn aggregation: summary table
T1 construct: made in house
Experimental: For the in vitro seeding assay, αSyn (100 μM), NAC35 (100 μM), NAC16 (200 μM), and NAC11 (200 μM) peptides were aggregated without ThT for 72–96 h. Fibril formation was confirmed by mixing 10 μL of the aggregated sample with 15 μM ThT and measuring fluorescence using an EnSpire Multimode Plate Reader (Revvity). Aggregates were then centrifuged to separate insoluble fractions as described above.
αSyn (100 μM) was incubated with 25 μM insoluble fractions (preformed fibrils) of αSyn, NAC35, NAC16, and NAC11 in a 100–150 μL volume per well of a 96‐well ViewPlate in the presence of 50 μM ThT. The aggregation kinetics were monitored on an EnSpire Multimode Plate Reader (Revvity) at 37 °C with a constant agitation of 1000 rpm. ThT fluorescence was recorded every 5–10 min for over 60–65 h. After aggregation, the contents of each well were collected, and insoluble fractions were isolated by centrifugation. These fractions were subsequently analyzed using dot blot analysis and Coomassie gel staining.
The samples were mixed with 2× Laemmli buffer [62.5 mM Tris/HCl (pH 6.8), 25% (w/v) glycerol, 2% SDS, and 0.01% Bromophenol Blue, supplemented with 5% (v/v) 2‐mercaptoethanol] and boiled at 95 °C for 5 min. The samples were then subjected to electrophoresis using Mini‐PROTEAN TGX 4–20% Precast gels (Bio‐Rad, Hercules, CA, USA, Cat. # 4561095) in Tris/glycine/SDS running buffer (Bio‐Rad). Gels were fixed in 50% methanol (v/v) and 10% acetic acid (v/v) for 1 h, stained with Coomassie Brilliant Blue R‐250 Staining Solution (Bio‐Rad, Cat. # 1610436EDU) for 12 h at 4 °C with gentle agitation, and destained in deionized water. Gel images were acquired using a ChemiDoc MP imaging system (Bio‐Rad), and densitometry was performed using the IMAGEJ software (RRID: SCR_003070; Bethesda, MD, USA).
Five μL of the sample (2.5 μL first, allowed to dry completely, then another 2.5 μL) was spotted onto a nitrocellulose membrane (Bio‐Rad, Cat. # 1620147), pre‐divided into uniform circular grids, and allowed to dry for 10 min at room temperature. The membrane was blocked for 1 h with 5% bovine serum albumin (BSA) in 1× Tris‐buffered saline with 0.05% Tween® 20 (TBST), followed by 3× washes with TBST. The membrane was then incubated for 1 h with anti‐α‐Synuclein (D37A6) rabbit monoclonal antibody (Cell Signaling Technology, Inc., Danvers, MA, USA, Cat. # 4179, RRID: AB_1904156), which recognizes an epitope surrounding Glu105 in the C‐terminal region of αSyn, and was used at a 1 : 2000 dilution in 5% BSA/TBST. After 3× washes with TBST, the blot was incubated with Alexa Fluor™ 647 Goat anti‐Rabbit IgG (Thermo Fisher Scientific; Cat. # A‐21245) at a 1 : 5000 dilution for 1 h. The blot was imaged using the ChemiDoc MP imaging system (Bio‐Rad), and densitometry was performed using IMAGEJ.

Substance | aggregation (ThT kinetics) [1] | aggregate morphology (AFM and TEM) [1] | Key observations: fibril formation and stability [1] | Key observations: nucleation [1] | solubility: UV–Vis absorption of soluble and insoluble fractions [2] | aggregation on altering pH [3] | seeding of αSyn aggregation (effect on lag time) in words [4] | αSyn dimerization (dimer-to-monomer band ratio, Coomassie gel) [4] | Key observations: seeding of αSyn aggregation [4] | lag time of aggregation compared with NAC35 [1] | lag time at acidic pH compared with neutral pH [3] | lag time at basic pH compared with neutral pH [3] | insoluble fraction of seeded αSyn (dot blot) ([4]; αSyn aggregated for 72 h with preformed fibrils, n = 3)
NAC8: shortest NAC peptide, eight residues, corresponding to αSyn 72–79 (TGVTAVAQ) | did not aggregate | no fibrillar or aggregated structures were formed | No nucleation or fibril formation observed | No nucleation or fibril formation observed | indistinguishable spectra for soluble and insoluble fractions; also recorded: remained fully soluble | did not induce | – | – | – | – | – | – | –
NAC11: truncated NAC peptide corresponding to αSyn 68–78, the minimal toxic core (GAVVTGVTAVA) | readily underwent aggregation | dense, sticky bundles lacking elongated tangles | forms unstable fibrils prone to precipitation | Rapid nucleation | clear increase in absorbance in the insoluble fraction | – | fail to seed αSyn aggregation | did not promote dimerization or aggregation | lacks seeding ability | shorter lag time of aggregation than NAC35 | longer lag times | longer lag times | –
NAC12: truncated NAC peptide corresponding to αSyn 71–82 (VTGVTAVAQKTV) | did not aggregate | no fibrillar or aggregated structures were formed | No nucleation or fibril formation observed | No nucleation or fibril formation observed | indistinguishable spectra for soluble and insoluble fractions; also recorded: remained fully soluble | did not induce | – | – | – | – | – | – | –
NAC16: truncated NAC peptide corresponding to αSyn 63–78 (VTNVGGAVVTGVTAVA) | readily underwent aggregation | elongated fibrils with clumped tangles | moderately stable fibrils | Rapid nucleation | clear increase in absorbance in the insoluble fraction | – | fail to seed αSyn aggregation | did not promote dimerization or aggregation | lacks seeding ability | shorter lag time of aggregation than NAC35 | longer lag times | longer lag times | –
NAC17: truncated NAC peptide corresponding to αSyn 79–95 (QKTVEGAGSIAAATGFV) | did not aggregate | no fibrillar or aggregated structures were formed | No nucleation or fibril formation observed. | No nucleation or fibril formation observed. | indistinguishable spectra for soluble and insoluble fractions; also recorded: remained fully soluble | did not induce | – | – | – | – | – | – | –
NAC35: peptide of the entire NAC domain, corresponding to αSyn 61–95 | readily underwent aggregation | elongated fibrils with clumped tangles | forms robust fibrils with enhanced stability | Slow nucleation | clear increase in absorbance in the insoluble fraction | – | significantly shortened the lag time | significantly increased αSyn dimerization | effective seeding of αSyn aggregation | – | shortened the lag time | increased it | increased insoluble fractions
